{
  "source": "paper PMC6107290",
  "about": "(PLoS Pathogens, 2018)",
  "proteins": {"B1": {"name": "SARS-CoV S glycoprotein S2 subunit (from trypsin cleavage of the S ectodomain) (domain or fragment)", "chain": "STSQKSIVAYTMSLGADSSIAYSNNTIAIPTNFSISITTEVMPVSMAKTSVDCNMYICGDSTECANLLLQYGSFCTQLNRALSGIAAEQDRNTREVFAQVKQMYKTPTLKYFGGFNFSQILPDPLKPTKRSFIEDLLFNKVTLADAGFMKQYGECLGDINARDLICAQKFNGLTVLPPLLTDDMIAAYTAALVSGTATAGWTFGAGAALQIPFAMQMAYRFNGIGVTQNVLYENQKQIANQFNKAISQIQESLTTTSTALGKLQDVVNQNAQALNTLVKQLSSNFGAISSVLNDILSRLDKVEAEVQIDRLITGRLQSLQTYVTQQLIRAAEIRASANLAATKMSECVLGQSKRVDFCGKGYHLMSFPQAAPHGVVFLHVTYVPSQERNFTTAPAICHEGKAYFPREGVFVFNGTSWFITQRNFFSPQIITTDNTFVSGNCDVVIGIINNTVYDPLQPELDSFKEELDKYFKNHTSPDVDLGDISGINASVVNIQKEIDRLNEVAKNLNESLIDLQELGKYEQYIKWP"}},
  "biological_target": "the molecule itself",
  "assay": "cryo-EM structure",
  "data": [
    {"protein": "B1", "values": [
      {"measurement": "stoichiometry N", "result": 3}
    ]}
  ]
}
